Source: PMC12786156

Molecular target: Xyloglucanase TpXEG12a from Talaromyces pinophilus (Talaromyces pinophilus)
Assay: SEC; gel filtration on Superdex 75 Increase, 20 mM Tris-HCl, 150 mM NaCl, pH 7.5; calibrated with molecular mass standards

stoichiometry N: 2
Substance: Xyloglucanase TpXEG12a from Talaromyces pinophilus (enzyme)
